Reference: IntAct's records for PubMed 35512704

B1: Speckle-type POZ protein (Homo sapiens), O43791 (parent)
chain: MSRVPSPPPPAEMSSGPVAESWCYTQIKVVKFSYMWTINNFSFCREEMGEVIKSSTFSSGANDKLKWCLRVNPKGLDEESKDYLSLYLLLVSCPKSEVRAKFKFSILNAKGEETKAMESQRAYRFVQGKDWGFKKFIRRDFLLDEANGLLPDDKLTLFCEVSVVQDSVNISGQNTMNMVKVPECRLADELGGLWENSRFTDCCLCVAGQEFQAHKAILAARSPVFSAMFEHEMEESKKNRVEINDVEPEVFKEMMCFIYTGKAPNLDKMADDLLAAADKYALERLKVMCEDALCSNLSVENAAEILILADLHSADQLKTQAVDFINYHASDVLETSGWKSMVVSHPHLVAEAYRSLASAQCPFLGPPRKRLKQS
partner: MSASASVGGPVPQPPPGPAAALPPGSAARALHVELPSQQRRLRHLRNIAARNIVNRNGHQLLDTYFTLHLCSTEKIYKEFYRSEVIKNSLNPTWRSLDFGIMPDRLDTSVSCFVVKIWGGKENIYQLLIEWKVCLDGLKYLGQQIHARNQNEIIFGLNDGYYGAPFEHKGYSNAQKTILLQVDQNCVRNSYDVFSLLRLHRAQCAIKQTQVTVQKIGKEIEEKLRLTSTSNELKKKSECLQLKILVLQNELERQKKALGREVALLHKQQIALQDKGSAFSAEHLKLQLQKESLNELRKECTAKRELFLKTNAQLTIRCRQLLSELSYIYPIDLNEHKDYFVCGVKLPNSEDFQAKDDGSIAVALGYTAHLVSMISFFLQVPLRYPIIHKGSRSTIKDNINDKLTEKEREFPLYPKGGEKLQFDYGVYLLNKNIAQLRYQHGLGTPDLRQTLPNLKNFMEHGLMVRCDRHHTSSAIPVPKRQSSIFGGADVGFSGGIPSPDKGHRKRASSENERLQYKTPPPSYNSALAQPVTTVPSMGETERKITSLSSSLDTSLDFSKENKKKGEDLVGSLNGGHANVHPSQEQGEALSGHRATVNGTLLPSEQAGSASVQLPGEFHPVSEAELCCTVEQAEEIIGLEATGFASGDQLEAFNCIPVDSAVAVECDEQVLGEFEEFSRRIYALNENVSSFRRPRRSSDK
B2: Speckle-type POZ protein (Homo sapiens), O43791 (parent)
chain: B1 chain
partner: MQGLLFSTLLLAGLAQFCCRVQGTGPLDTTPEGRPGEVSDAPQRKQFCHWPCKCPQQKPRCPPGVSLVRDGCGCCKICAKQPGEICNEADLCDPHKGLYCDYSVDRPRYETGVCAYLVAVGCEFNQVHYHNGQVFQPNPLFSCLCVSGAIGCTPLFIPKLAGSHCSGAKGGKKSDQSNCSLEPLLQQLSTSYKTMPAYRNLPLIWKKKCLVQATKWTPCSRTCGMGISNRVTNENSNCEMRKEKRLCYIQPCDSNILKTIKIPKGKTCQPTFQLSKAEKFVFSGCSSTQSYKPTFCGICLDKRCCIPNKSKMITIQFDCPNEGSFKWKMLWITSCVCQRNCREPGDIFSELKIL

Variants of: B1
Conditions: with uvrag_human UVRAG

effect of a mutation on the interaction | Variant
with no effect | MSRVPSPPPPAEMSSGPVAESWCYTQIKVVKFSYMWTINNFSFCREEMGEVIKSSTFSSGANDKLKWCLRVNPKGLDEESKDYLSLCLLLVSCPKSEVRAKFKFSILNAKGEETKAMESQRAYRFVQGKDWGFKKFIRRDFLLDEANGLLPDDKLTLFCEVSVVQDSVNISGQNTMNMVKVPECRLADELGGLWENSRFTDCCLCVAGQEFQAHKAILAARSPVFSAMFEHEMEESKKNRVEINDVEPEVFKEMMCFIYTGKAPNLDKMADDLLAAADKYALERLKVMCEDALCSNLSVENAAEILILADLHSADQLKTQAVDFINYHASDVLETSGWKSMVVSHPHLVAEAYRSLASAQCPFLGPPRKRLKQS [Y87C]

Variants of: B1
Conditions: with uvrag_human UVRAG
Remark: another data set of the same source

effect of a mutation on the interaction | Variant
with no effect | MSRVPSPPPPAEMSSGPVAESWCYTQIKVVKFSYMWTINNFSFCREEMGEVIKSSTFSSGANDKLKWCLRVNPKGLDEESKDYLSLYLLLVSCPKSEVRAKFKFSILNAKGEETKAMESQRAYRFVQGKDWGLKKFIRRDFLLDEANGLLPDDKLTLFCEVSVVQDSVNISGQNTMNMVKVPECRLADELGGLWENSRFTDCCLCVAGQEFQAHKAILAARSPVFSAMFEHEMEESKKNRVEINDVEPEVFKEMMCFIYTGKAPNLDKMADDLLAAADKYALERLKVMCEDALCSNLSVENAAEILILADLHSADQLKTQAVDFINYHASDVLETSGWKSMVVSHPHLVAEAYRSLASAQCPFLGPPRKRLKQS [F133L]

Variants of: B1
Conditions: with uvrag_human UVRAG
Remark: another data set of the same source

effect of a mutation on the interaction | Variant
with no effect | MSRVPSPPPPAEMSSGPVAESWCYTQIKVVKFSYMWTINNFSFCREEMGEVIKSSTFSSGANDKLKWCLRVNPKGLDEESKDYLSLYLLLVSCPKSEVRAKFKFSILNAKGEETKAMESQRAYRFVQGKDWGVKKFIRRDFLLDEANGLLPDDKLTLFCEVSVVQDSVNISGQNTMNMVKVPECRLADELGGLWENSRFTDCCLCVAGQEFQAHKAILAARSPVFSAMFEHEMEESKKNRVEINDVEPEVFKEMMCFIYTGKAPNLDKMADDLLAAADKYALERLKVMCEDALCSNLSVENAAEILILADLHSADQLKTQAVDFINYHASDVLETSGWKSMVVSHPHLVAEAYRSLASAQCPFLGPPRKRLKQS [F133V]

Variants of: B1
Conditions: with uvrag_human UVRAG
Remark: another data set of the same source

effect of a mutation on the interaction | Variant
with no effect | MSRVPSPPPPAEMSSGPVAESWCYTQIKVVKFSYMWTINNFSFCREEMGEVIKSSTFSSGANDKLKWCLRVNPKGLDEESKDYLSLYLLLVSCPKSEVRAKCKFSILNAKGEETKAMESQRAYRFVQGKDWGFKKFIRRDFLLDEANGLLPDDKLTLFCEVSVVQDSVNISGQNTMNMVKVPECRLADELGGLWENSRFTDCCLCVAGQEFQAHKAILAARSPVFSAMFEHEMEESKKNRVEINDVEPEVFKEMMCFIYTGKAPNLDKMADDLLAAADKYALERLKVMCEDALCSNLSVENAAEILILADLHSADQLKTQAVDFINYHASDVLETSGWKSMVVSHPHLVAEAYRSLASAQCPFLGPPRKRLKQS [F102C]

Variants of: B2
Conditions: with ccn6_human CCN6, O95389

effect of a mutation on the interaction | Variant
with no effect | MSRVPSPPPPAEMSSGPVAESWCYTQIKVVKFSYMWTINNFSFCREEMGEVIKSSTFSSGANDKLKWCLRVNPKGLDEESKDYLSLYLLLVSCPKSEVRAKCKFSILNAKGEETKAMESQRAYRFVQGKDWGFKKFIRRDFLLDEANGLLPDDKLTLFCEVSVVQDSVNISGQNTMNMVKVPECRLADELGGLWENSRFTDCCLCVAGQEFQAHKAILAARSPVFSAMFEHEMEESKKNRVEINDVEPEVFKEMMCFIYTGKAPNLDKMADDLLAAADKYALERLKVMCEDALCSNLSVENAAEILILADLHSADQLKTQAVDFINYHASDVLETSGWKSMVVSHPHLVAEAYRSLASAQCPFLGPPRKRLKQS [F102C]

Variants of: B2
Conditions: with ccn6_human CCN6, O95389
Remark: another data set of the same source

effect of a mutation on the interaction | Variant
with no effect | MSRVPSPPPPAEMSSGPVAESWCYTQIKVVKFSYMWTINNFSFCREEMGEVIKSSTFSSGANDKLKWCLRVNPKGLDEESKDYLSLCLLLVSCPKSEVRAKFKFSILNAKGEETKAMESQRAYRFVQGKDWGFKKFIRRDFLLDEANGLLPDDKLTLFCEVSVVQDSVNISGQNTMNMVKVPECRLADELGGLWENSRFTDCCLCVAGQEFQAHKAILAARSPVFSAMFEHEMEESKKNRVEINDVEPEVFKEMMCFIYTGKAPNLDKMADDLLAAADKYALERLKVMCEDALCSNLSVENAAEILILADLHSADQLKTQAVDFINYHASDVLETSGWKSMVVSHPHLVAEAYRSLASAQCPFLGPPRKRLKQS [Y87C]

Variants of: B2
Conditions: with ccn6_human CCN6, O95389
Remark: another data set of the same source

effect of a mutation on the interaction | Variant
with no effect | MSRVPSPPPPAEMSSGPVAESWCYTQIKVVKFSYMWTINNFSFCREEMGEVIKSSTFSSGANDKLKWCLRVNPKGLDEESKDYLSLYLLLVSCPKSEVRAKFKFSILNAKGEETKAMESQRAYRFVQGKDWGVKKFIRRDFLLDEANGLLPDDKLTLFCEVSVVQDSVNISGQNTMNMVKVPECRLADELGGLWENSRFTDCCLCVAGQEFQAHKAILAARSPVFSAMFEHEMEESKKNRVEINDVEPEVFKEMMCFIYTGKAPNLDKMADDLLAAADKYALERLKVMCEDALCSNLSVENAAEILILADLHSADQLKTQAVDFINYHASDVLETSGWKSMVVSHPHLVAEAYRSLASAQCPFLGPPRKRLKQS [F133V]

Variants of: B2
Conditions: with ccn6_human CCN6, O95389
Remark: another data set of the same source

effect of a mutation on the interaction | Variant
with no effect | MSRVPSPPPPAEMSSGPVAESWCYTQIKVVKFSYMWTINNFSFCREEMGEVIKSSTFSSGANDKLKWCLRVNPKGLDEESKDYLSLYLLLVSCPKSEVRAKFKFSILNAKGEETKAMESQRAYRFVQGKDWGLKKFIRRDFLLDEANGLLPDDKLTLFCEVSVVQDSVNISGQNTMNMVKVPECRLADELGGLWENSRFTDCCLCVAGQEFQAHKAILAARSPVFSAMFEHEMEESKKNRVEINDVEPEVFKEMMCFIYTGKAPNLDKMADDLLAAADKYALERLKVMCEDALCSNLSVENAAEILILADLHSADQLKTQAVDFINYHASDVLETSGWKSMVVSHPHLVAEAYRSLASAQCPFLGPPRKRLKQS [F133L]
